Substitutions are numbered along the chain they refer to. Blank lines part the entries; values can stand above or below the binder they belong to.
Tests used:
Insulin = molecular target: T1, Insulin; assay: ELISA on coated insulin, 100 nM antibody
T1 construct: polyreactivity antigen

human PD-1 [1] = molecular target: T2, human PD-1 (human, UniProt Q15116 25-167, limits assumed); assay: BLI, antibody on AHC tip, soluble PD-1
T2 construct: also called huPD-1

[2] = molecular target: PD-1 on PD-1 reporter Jurkat cells; assay: cell-based or functional assay
human PD-1 [3] = molecular target: T2, human PD-1; assay: ELISA on coated huPD-1
Experimental: Plates were coated with 2 μg/mL huPD-1 in 1×PBS at 4° C. overnight. Plates were blocked with 1×PBS with 1% BSA. Antibodies were tested in duplicate for binding with a 3-fold, dilution series from 300 nM to 0.4 nM. Signal is background subtracted for coated wells with 2° antibody only. […] PD-1 agonists comprising germline mutations bind to human PD-1.

human PD-1 [4] = molecular target: T2, human PD-1; assay: BLI, antibody on AHC tip

T1 sequence (P01308 25-54, chain 1 of 2): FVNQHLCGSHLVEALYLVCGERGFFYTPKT
T1 sequence (P01308 90-110, chain 2 of 2): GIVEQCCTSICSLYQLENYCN
T2 sequence (Q15116 25-167 limits assumed): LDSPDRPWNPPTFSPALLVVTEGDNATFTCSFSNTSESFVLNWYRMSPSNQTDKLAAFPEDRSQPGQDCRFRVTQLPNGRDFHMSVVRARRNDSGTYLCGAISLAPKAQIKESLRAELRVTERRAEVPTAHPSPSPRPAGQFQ

B3: MIAB145 (antibody, human IgG1, kappa)
heavy: EVQLLESGGGLVQPGGSLRLSCAASGFTFSDFWMHWVRQAPGKGLEWISYISGDSGYTNYADSVKGRFTISRDNSKNTLYLQMNSLRAEDTAVYYCARDRPYYYYMDVWGKGTTVTVSSASTKGPSVFPLAPSSKSTSGGTAALGCLVKDYFPEPVTVSWNSGALTSGVHTFPAVLQSSGLYSLSSVVTVPSSSLGTQTYICNVNHKPSNTKVDKKVEPKSCDKTHTCPPCPAPEAAGAPSVFLFPPKPKDTLMISRTPEVTCVVVDVSHEDPEVKFNWYVDGVEVHNAKTKPREEQYNSTYRVVSVLTVLHQDWLNGKEYKCKVSNKALPAPIEKTISKAKGQPREPQVYTLPPSREEMTKNQVSLTCLVKGFYPSDIAVEWESNGQPENNYKTTPPVLDSDGSFFLYSKLTVDKSRWQQGNVFSCSVMHEALHNHYTQKSLSLSPGGGGGSAPTSSSTKKTQLQLEHLLLDLQMILNGINNYKNPKLTRMLTFKFYMPKKATELKHLQCLEEELKPLEEALNLAPSKNFHLRPRDLISDINVIVLELKGSETTFMCEYADETATIVEFINRWITFSQSIISTLT
light: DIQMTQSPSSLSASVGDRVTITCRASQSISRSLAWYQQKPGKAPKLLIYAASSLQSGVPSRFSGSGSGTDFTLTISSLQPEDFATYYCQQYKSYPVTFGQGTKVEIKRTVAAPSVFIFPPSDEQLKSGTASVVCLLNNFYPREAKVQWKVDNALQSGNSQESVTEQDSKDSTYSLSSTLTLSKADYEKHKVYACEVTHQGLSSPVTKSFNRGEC
notes: also called MIAB145-001
- Insulin polyreactivity score (Insulin): 4.58

B6: MIAB147 (antibody, human IgG1, kappa)
heavy: B3 heavy
light: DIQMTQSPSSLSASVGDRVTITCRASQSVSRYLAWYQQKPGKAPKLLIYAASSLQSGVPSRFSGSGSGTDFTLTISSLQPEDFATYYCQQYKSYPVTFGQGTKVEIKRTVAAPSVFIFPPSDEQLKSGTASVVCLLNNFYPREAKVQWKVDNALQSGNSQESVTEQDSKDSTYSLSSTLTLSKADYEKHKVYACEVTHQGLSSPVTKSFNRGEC
notes: also called MIAB147-001
- Insulin polyreactivity score (Insulin): 3.81

B7: MIAB149 (antibody, human IgG1, kappa)
heavy: B3 heavy
light: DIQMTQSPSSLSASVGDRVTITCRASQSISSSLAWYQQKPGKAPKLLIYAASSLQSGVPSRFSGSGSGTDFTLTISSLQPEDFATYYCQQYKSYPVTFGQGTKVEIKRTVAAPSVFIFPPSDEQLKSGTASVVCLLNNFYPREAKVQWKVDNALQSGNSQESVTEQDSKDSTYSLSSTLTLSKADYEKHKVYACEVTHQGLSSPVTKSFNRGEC
notes: also called MIAB149-001
- Insulin polyreactivity score (Insulin): 3.53

B8: PMAB214 (bispecific antibody, human IgG1, kappa)
heavy: QVQLVQSGAEVKKPGASVKVSCKASGYTFSDHYMHWVRQAPGQGLEWMGTIAPSGGRTSYAQKFQGRVTMTRDTSTSTVYMELSSLRSEDTAVYYCAADNGHASGWLYYYGMDVWGQGTTVTVSSASTKGPSVFPLAPSSKSTSGGTAALGCLVKDYFPEPVTVSWNSGALTSGVHTFPAVLQSSGLYSLSSVVTVPSSSLGTQTYICNVNHKPSNTKVDKKVEPKSCDKTHTCPPCPAPEAAGAPSVFLFPPKPKDTLMISRTPEVTCVVVDVSHEDPEVKFNWYVDGVEVHNAKTKPREEQYNSTYRVVSVLTVLHQDWLNGKEYKCKVSNKALPAPIEKTISKAKGQPREPQVYTLPPSREEMTKNQVSLTCLVKGFYPSDIAVEWESNGQPENNYKTTPPVLDSDGSFFLYSKLTVDKSRWQQGNVFSCSVMHEALHNHYTQKSLSLSPGGGGGSGGGGSGGGGSEVQLLESGGGLVQPGGSLRLSCAASGFTFSDFWMHWVRQAPGKGLEWISYISGDSGYTNYADSVKGRFTISRDNSKNTLYLQMNSLRAEDTAVYYCARDRPYYYYMDVWGKGTTVTVSSGGGGSGGGGSGGGGSGGGGSDIQMTQSPSSLSASVGDRVTITCRASQSVSRSLAWYQQKPGKAPKLLIYAASSLQSGVPSRFSGSGSGTDFTLTISSLQPEDFATYYCQQYKSYPVTFGQGTKVEIK
light: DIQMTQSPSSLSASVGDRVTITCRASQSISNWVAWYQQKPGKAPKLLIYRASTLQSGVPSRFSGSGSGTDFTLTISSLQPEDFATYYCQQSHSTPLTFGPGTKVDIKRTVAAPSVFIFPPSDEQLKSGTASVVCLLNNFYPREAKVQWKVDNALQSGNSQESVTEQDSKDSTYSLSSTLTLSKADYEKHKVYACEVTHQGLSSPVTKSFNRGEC
- Kd (human PD-1 [1]): 8050 nM

B9: PMAB61 (bispecific antibody, human IgG1, kappa)
heavy: EVQLVQSGAEVKKPGASVKVSCKASGYSFTSYYMHWVRQAPGQGLEWMGIINPSGGSTSYAQKFQGRVTMTRDTSTSTVYMELSSLRSEDTAVYYCASGWVYWGQGTLVTVSSASTKGPSVFPLAPSSKSTSGGTAALGCLVKDYFPEPVTVSWNSGALTSGVHTFPAVLQSSGLYSLSSVVTVPSSSLGTQTYICNVNHKPSNTKVDKKVEPKSCDKTHTCPPCPAPEAAGAPSVFLFPPKPKDTLMISRTPEVTCVVVDVSHEDPEVKFNWYVDGVEVHNAKTKPREEQYNSTYRVVSVLTVLHQDWLNGKEYKCKVSNKALPAPIEKTISKAKGQPREPQVYTLPPSREEMTKNQVSLTCLVKGFYPSDIAVEWESNGQPENNYKTTPPVLDSDGSFFLYSKLTVDKSRWQQGNVFSCSVMHEALHNHYTQKSLSLSPGGGGGSGGGGSGGGGSEVQLLESGGGLVQPGGSLRLSCAASGFTFSSYWMHWVRQAPGKGLEWVSYISGSGGYTNYADSVKGRFTISRDNSKNTLYLQMNSLRAEDTAVYYCARDRPYYYDMDVWGKGTTVTVSSGGGGSGGGGSGGGGSGGGGSDIQMTQSPSSLSASVGDRVTITCRASQSISSSLAWYQQKPGKAPKLLIYAASSLQSGVPSRFSGSGSGTDFTLTISSLQPEDFATYYCQQYKSYPVTFGQGTKVEIK
light: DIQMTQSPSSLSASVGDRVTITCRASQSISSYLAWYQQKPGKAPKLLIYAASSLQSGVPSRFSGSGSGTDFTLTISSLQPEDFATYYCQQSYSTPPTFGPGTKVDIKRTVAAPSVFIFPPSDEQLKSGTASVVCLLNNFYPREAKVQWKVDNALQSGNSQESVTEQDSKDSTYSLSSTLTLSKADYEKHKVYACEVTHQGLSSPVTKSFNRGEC
- PD-1 reporter Jurkat cells on test-article-loaded MAdCAM-expressing CHO cells; EC50 [2]: 3.02 nM
- SHP-2 recruitment, Ig-tethered test article, PD-1 reporter Jurkat cells; EC50 (second experiment) [2]: 4.45 nM

B10: PMAB233 (antibody, human IgG1, kappa, V domains shown)
VH: QVQLVQSGAEVKKPGASVKVSCKASGYTFTTYYMHWVRQAPGQGLEWMGIIQPSGGSTSYAQKFQGRVTMTRDTSTSTVYMELSSLRSEDTAVYYCASGWVYWGQGTLVTVSS
VL: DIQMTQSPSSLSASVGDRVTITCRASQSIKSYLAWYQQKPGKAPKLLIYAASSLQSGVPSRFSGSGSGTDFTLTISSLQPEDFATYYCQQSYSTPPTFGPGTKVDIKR
- IC50 (human PD-1 [3]): 85.9 nM

B12: PMAB244 (antibody, human IgG1, kappa, V domains shown)
VH: B10 VH with T28S
VL: DIQMTQSPSSLSASVGDRVTITCQASRDIKNYLAWYQQKPGKAPKLLIYAASSLQSGVPSRFSGSGSGTDFTLTISSLQPEDFATYYCQQSYSTPPTFGPGTKVDIKR
- IC50 (human PD-1 [3]): 258 nM

B17: PMAB238 (antibody, human IgG1, kappa, V domains shown)
VH: B10 VH with T28S, T31S
VL: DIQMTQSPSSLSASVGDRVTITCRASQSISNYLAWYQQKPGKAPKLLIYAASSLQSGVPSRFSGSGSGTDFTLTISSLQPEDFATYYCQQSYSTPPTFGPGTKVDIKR
- IC50 (human PD-1 [3]): 36.4 nM

B19: PMAB241 (antibody, human IgG1, kappa, V domains shown)
VH: B10 VH with T28S, T31S
VL: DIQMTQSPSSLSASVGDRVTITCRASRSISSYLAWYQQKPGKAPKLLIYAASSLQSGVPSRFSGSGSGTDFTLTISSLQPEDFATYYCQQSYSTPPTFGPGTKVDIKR
- IC50 (human PD-1 [3]): 46.4 nM

B20: PMAB243 (antibody, human IgG1, kappa, V domains shown)
VH: B10 VH with T28S, T31S
VL: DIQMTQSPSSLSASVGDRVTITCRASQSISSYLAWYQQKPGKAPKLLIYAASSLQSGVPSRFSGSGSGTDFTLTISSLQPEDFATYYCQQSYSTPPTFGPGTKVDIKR
- IC50 (human PD-1 [3]): 40.7 nM

B23: PMAB182 (bispecific antibody, human IgG1, kappa)
heavy: EVQLLESGGGLVQPGGSLRLSCAASGFTFSSYAMSWVRQAPGKGLEWVSGISGSGGSTYYADSVKGRFTISRDNSKNTLYLQMNSLRAEDTAVYYCARGRGGSGWLDYWGQGTLVTVSSASTKGPSVFPLAPSSKSTSGGTAALGCLVKDYFPEPVTVSWNSGALTSGVHTFPAVLQSSGLYSLSSVVTVPSSSLGTQTYICNVNHKPSNTKVDKKVEPKSCDKTHTCPPCPAPEAAGAPSVFLFPPKPKDTLMISRTPEVTCVVVDVSHEDPEVKFNWYVDGVEVHNAKTKPREEQYNSTYRVVSVLTVLHQDWLNGKEYKCKVSNKALPAPIEKTISKAKGQPREPQVYTLPPSREEMTKNQVSLTCLVKGFYPSDIAVEWESNGQPENNYKTTPPVLDSDGSFFLYSKLTVDKSRWQQGNVFSCSVMHEALHNHYTQKSLSLSPGGGGGSGGGGSGGGGSEVQLLESGGGLVQPGGSLRLSCAASGFTFSDFWMHWVRQAPGKGLEWISYISGDSGYTNYADSVKGRFTISRDNSKNTLYLQMNSLRAEDTAVYYCARDRPYYYYMDVWGKGTTVTVSSGGGGSGGGGSGGGGSGGGGSDIQMTQSPSSLSASVGDRVTITCRASQSVSRSLAWYQQKPGKAPKLLIYAASSLQSGVPSRFSGSGSGTDFTLTISSLQPEDFATYYCQQYKSYPVTFGQGTKVEIK
light: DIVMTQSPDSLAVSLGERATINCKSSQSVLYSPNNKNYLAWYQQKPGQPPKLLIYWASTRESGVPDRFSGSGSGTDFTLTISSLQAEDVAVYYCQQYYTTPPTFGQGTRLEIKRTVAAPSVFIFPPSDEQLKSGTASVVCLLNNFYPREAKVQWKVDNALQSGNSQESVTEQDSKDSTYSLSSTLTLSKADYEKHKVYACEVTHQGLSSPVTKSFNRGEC
- binding result (human PD-1 [4]): no binding (tested: 1000 nM)

B26: PMAB179 (bispecific antibody, human IgG1, kappa)
heavy: B23 heavy with A33D, G50A, G53I
light: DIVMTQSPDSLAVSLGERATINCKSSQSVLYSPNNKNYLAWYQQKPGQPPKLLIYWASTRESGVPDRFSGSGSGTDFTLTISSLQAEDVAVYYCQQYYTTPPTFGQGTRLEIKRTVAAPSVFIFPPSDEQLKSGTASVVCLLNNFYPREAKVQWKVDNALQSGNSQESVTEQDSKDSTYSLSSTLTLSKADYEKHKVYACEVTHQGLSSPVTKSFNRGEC
- binding result (human PD-1 [4]): no binding (tested: 1000 nM)

The remaining lines, values ahead:

- Insulin polyreactivity score (Insulin): 13.2
B1: MIAB133 (antibody, human IgG1, kappa)
heavy: B3 heavy with D31S
light: DIQMTQSPSSLSASVGDRVTITCRASQSVSRSLAWYQQKPGKAPKLLIYAASSLQSGVPSRFSGSGSGTDFTLTISSLQPEDFATYYCQQYKSYPVTFGQGTKVEIKRTVAAPSVFIFPPSDEQLKSGTASVVCLLNNFYPREAKVQWKVDNALQSGNSQESVTEQDSKDSTYSLSSTLTLSKADYEKHKVYACEVTHQGLSSPVTKSFNRGEC
notes: also called MIAB133-001

- Insulin polyreactivity score (Insulin): 75.4
B2: MIAB136 (antibody, human IgG1, kappa)
heavy: B3 heavy with D31S, F32Y, W33A, H35S
light: B1 light

- Insulin polyreactivity score (Insulin): 67.3
B4: MIAB137 (antibody, human IgG1, kappa)
heavy: B3 heavy with I48V, Y50A, D54S, S55G, Y57S, N59Y
light: B1 light

- Insulin polyreactivity score (Insulin): 2.61
B5: MIAB146 (antibody, human IgG1, kappa)
heavy: B3 heavy
light: B1 light with R31S
notes: also called MIAB146-001

- IC50 (human PD-1 [3]): 39 nM
B11: PMAB240 (antibody, human IgG1, kappa, V domains shown)
VH: B10 VH with T28S, T31S
VL: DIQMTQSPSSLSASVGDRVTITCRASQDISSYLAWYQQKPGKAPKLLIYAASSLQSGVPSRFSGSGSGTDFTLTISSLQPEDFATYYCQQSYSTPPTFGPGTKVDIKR

- IC50 (human PD-1 [3]): 23.2 nM
B13: PMAB235 (antibody, human IgG1, kappa, V domains shown)
VH: B10 VH
VL: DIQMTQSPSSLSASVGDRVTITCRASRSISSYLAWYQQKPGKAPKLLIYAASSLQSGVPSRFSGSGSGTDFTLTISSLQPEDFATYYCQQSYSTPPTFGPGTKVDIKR

- IC50 (human PD-1 [3]): 30.6 nM
B14: PMAB242 (antibody, human IgG1, kappa, V domains shown)
VH: B10 VH with T28S, T31S
VL: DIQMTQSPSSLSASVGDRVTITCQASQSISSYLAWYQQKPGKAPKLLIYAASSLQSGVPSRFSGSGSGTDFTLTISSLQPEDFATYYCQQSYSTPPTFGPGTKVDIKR

- IC50 (human PD-1 [3]): 15.9 nM
B15: PMAB237 (antibody, human IgG1, kappa, V domains shown)
VH: B10 VH
VL: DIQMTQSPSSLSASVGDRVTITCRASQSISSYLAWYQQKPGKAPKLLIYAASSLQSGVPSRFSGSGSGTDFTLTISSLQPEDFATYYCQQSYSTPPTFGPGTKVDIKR

- IC50 (human PD-1 [3]): 44.7 nM
B16: PMAB239 (antibody, human IgG1, kappa, V domains shown)
VH: B10 VH with T28S, T31S
VL: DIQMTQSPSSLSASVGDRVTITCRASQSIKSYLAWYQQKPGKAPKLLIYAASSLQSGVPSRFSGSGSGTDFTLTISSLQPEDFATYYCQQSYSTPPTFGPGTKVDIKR

- IC50 (human PD-1 [3]): 28.1 nM
B18: PMAB234 (antibody, human IgG1, kappa, V domains shown)
VH: B10 VH
VL: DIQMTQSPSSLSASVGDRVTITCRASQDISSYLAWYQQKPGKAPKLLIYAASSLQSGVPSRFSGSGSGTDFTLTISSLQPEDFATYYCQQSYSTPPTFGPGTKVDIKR

- binding result (human PD-1 [4]): no binding (tested: 1000 nM)
B21: PMAB137 (bispecific antibody, human IgG1, kappa)
heavy: B23 heavy with S31N, Y32S, S52T, G53I
light: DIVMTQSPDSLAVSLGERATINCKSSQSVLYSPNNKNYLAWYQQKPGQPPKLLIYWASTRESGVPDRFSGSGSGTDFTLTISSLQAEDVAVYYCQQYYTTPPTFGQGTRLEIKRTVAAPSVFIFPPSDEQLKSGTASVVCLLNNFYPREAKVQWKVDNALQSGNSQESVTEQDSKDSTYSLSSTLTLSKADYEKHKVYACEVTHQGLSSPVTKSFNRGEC

- binding result (human PD-1 [4]): no binding (tested: 1000 nM)
B22: PMAB145 (bispecific antibody, human IgG1, kappa)
heavy: B23 heavy with S31N, Y32S, A33D, S52T, G53I
light: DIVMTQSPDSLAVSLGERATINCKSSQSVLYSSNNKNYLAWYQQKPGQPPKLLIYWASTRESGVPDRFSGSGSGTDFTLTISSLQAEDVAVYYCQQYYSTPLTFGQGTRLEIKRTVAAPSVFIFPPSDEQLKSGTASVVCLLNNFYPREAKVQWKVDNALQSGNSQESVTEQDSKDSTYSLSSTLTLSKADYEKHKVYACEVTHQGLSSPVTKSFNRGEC

- binding result (human PD-1 [4]): no binding (tested: 1000 nM)
B24: PMAB144 (bispecific antibody, human IgG1, kappa)
heavy: B23 heavy with S31N, Y32S, A33D, S52T, G53I
light: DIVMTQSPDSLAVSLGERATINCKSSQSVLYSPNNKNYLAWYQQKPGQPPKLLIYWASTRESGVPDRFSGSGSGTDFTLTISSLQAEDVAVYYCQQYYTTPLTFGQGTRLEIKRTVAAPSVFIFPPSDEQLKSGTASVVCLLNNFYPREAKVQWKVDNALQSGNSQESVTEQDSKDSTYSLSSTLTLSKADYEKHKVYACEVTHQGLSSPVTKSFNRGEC

- binding result (human PD-1 [4]): no binding (tested: 1000 nM)
B25: PMAB184 (bispecific antibody, human IgG1, kappa)
heavy: B23 heavy with A33D, G50A
light: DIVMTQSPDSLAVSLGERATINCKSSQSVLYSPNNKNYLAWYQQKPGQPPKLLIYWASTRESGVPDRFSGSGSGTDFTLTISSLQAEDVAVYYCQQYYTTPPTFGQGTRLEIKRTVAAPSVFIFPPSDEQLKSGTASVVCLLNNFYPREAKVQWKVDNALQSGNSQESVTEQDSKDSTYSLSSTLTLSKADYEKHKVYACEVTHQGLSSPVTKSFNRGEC
